One assay addresses T1, MBP–Apm1-Δ2–158 (S. cerevisiae, UniProt Q00776 1-475, Δ2–158).
T1 sequence (looked up): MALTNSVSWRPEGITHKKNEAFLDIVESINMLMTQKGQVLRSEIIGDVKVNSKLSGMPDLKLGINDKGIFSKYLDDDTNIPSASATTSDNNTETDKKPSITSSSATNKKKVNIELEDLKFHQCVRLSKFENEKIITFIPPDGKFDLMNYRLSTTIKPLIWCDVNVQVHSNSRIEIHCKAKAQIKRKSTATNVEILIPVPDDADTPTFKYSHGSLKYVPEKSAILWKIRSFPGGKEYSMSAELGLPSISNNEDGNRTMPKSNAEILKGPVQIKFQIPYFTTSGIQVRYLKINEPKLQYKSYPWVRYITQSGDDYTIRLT
Briefly: pull-down.

For another assay, the target named is T2, MBP-Apm1 (S. cerevisiae, UniProt Q00776 1-475).
T2 sequence (looked up): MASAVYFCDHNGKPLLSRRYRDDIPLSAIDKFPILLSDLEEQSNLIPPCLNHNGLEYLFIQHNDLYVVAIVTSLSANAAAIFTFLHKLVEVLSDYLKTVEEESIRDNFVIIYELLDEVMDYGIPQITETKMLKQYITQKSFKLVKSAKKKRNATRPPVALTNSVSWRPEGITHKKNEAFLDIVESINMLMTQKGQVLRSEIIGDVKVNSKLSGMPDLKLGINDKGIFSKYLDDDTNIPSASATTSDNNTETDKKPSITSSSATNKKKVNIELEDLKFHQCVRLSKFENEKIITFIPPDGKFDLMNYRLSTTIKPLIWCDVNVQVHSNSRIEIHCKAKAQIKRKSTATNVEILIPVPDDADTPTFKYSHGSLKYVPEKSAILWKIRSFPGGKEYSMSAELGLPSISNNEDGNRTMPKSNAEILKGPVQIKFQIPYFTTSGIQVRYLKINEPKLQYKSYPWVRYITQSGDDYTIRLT
Nature of the assay: pull-down.

B1: Ste13-GST (Ste13p cytosolic domain, residues 1–118, fused to the NH2 terminus of GST) (domain or fragment, S. cerevisiae, UniProt P33894 1-118, looked up)
chain: MSASTHSHKRKNSHLFPQRKSSNSSMDKPFFPNNDSVANTDPQSNENGHTINEIRPTEATIDVTDVPQTPFLQEQYSMRPRRESFQFNDIENQHHTHSFFSVNKFNRRWGEWSLPEKR
Consider B1, for which the binding result in the assay with MBP–Apm1-Δ2–158 and with MBP-Apm1 was “binds” throughout.
